Experimental data: publication PMC4546058

Columns and labels:
[1] = biological target: Str enolase 137/363–1 (ΔK435) (Streptococcus pyogenes) (UniProt P69949)
[2] = biological target: Str enolase 137/363–1 (ΔK435) (Streptococcus pyogenes) (UniProt P69949); assay: AUC; sedimentation velocity, Beckman XL-I, 20°C, 30 000-37 000 RPM, TME-SO4 (50 mM Tris, 1 mM MgSO4, 0.1 mM EDTA, 44 mN H2SO4, pH 7.4); c(s) in Sedfit; octamer to 8 monomers
[3] = biological target: Str enolase 137/363–2 (ΔK434-K435) (Streptococcus pyogenes) (UniProt P69949)
[4] = biological target: Str enolase 137/363–2 (ΔK434-K435) (Streptococcus pyogenes) (UniProt P69949); assay: AUC; sedimentation velocity, Beckman XL-I, 20°C, 30 000-37 000 RPM, TME-SO4 (50 mM Tris, 1 mM MgSO4, 0.1 mM EDTA, 44 mN H2SO4, pH 7.4); c(s) in Sedfit; octamer to 8 monomers
[5] = biological target: Str enolase 137/363–3 (ΔL433-K435) (Streptococcus pyogenes) (UniProt P69949)
[6] = biological target: Str enolase 137/363–3 (ΔL433-K435) (Streptococcus pyogenes) (UniProt P69949); assay: AUC; sedimentation velocity, Beckman XL-I, 20°C, 30 000-37 000 RPM, TME-SO4 (50 mM Tris, 1 mM MgSO4, 0.1 mM EDTA, 44 mN H2SO4, pH 7.4); c(s) in Sedfit; octamer to 8 monomers
[7] = biological target: Str enolase 137/363–4 (ΔN432-K435) (Streptococcus pyogenes) (UniProt P69949)
[8] = biological target: Str enolase 137/363–4 (ΔN432-K435) (Streptococcus pyogenes) (UniProt P69949); assay: AUC; sedimentation velocity, Beckman XL-I, 20°C, 30 000-37 000 RPM, TME-SO4 (50 mM Tris, 1 mM MgSO4, 0.1 mM EDTA, 44 mN H2SO4, pH 7.4); c(s) in Sedfit; octamer to 8 monomers
[9] = biological target: Str enolase 137/363–5 (ΔY431-K435) (Streptococcus pyogenes) (UniProt P69949)
[10] = biological target: Str enolase 137/363–5 (ΔY431-K435) (Streptococcus pyogenes) (UniProt P69949); assay: AUC; sedimentation velocity, Beckman XL-I, 20°C, 30 000-37 000 RPM, TME-SO4 (50 mM Tris, 1 mM MgSO4, 0.1 mM EDTA, 44 mN H2SO4, pH 7.4); c(s) in Sedfit; octamer to 8 monomers
[11] = biological target: Str enolase 137/363–6 (ΔF430-K435) (Streptococcus pyogenes) (UniProt P69949)
[12] = biological target: Str enolase 137/363–6 (ΔF430-K435) (Streptococcus pyogenes) (UniProt P69949); remark: listed apart in the source
[13] = biological target: Str enolase 137/363–8 (ΔK428-K435) (Streptococcus pyogenes) (UniProt P69949)
[14] = biological target: Str enolase 137/363–8 (ΔK428-K435) (Streptococcus pyogenes) (UniProt P69949); remark: listed apart in the source
[15] = biological target: Str enolase DB E363G (Streptococcus pyogenes) (UniProt P69949)
[16] = biological target: Str enolase DB E363G (Streptococcus pyogenes) (UniProt P69949); assay: AUC; sedimentation velocity, Beckman XL-I, 20°C, 30 000-37 000 RPM, TME-SO4 (50 mM Tris, 1 mM MgSO4, 0.1 mM EDTA, 44 mN H2SO4, pH 7.4); c(s) in Sedfit; octamer to 8 monomers
[17] = biological target: Str enolase DB F137L (Streptococcus pyogenes) (UniProt P69949)
[18] = biological target: Str enolase DB F137L (Streptococcus pyogenes) (UniProt P69949); assay: AUC; sedimentation velocity, Beckman XL-I, 20°C, 30 000-37 000 RPM, TME-SO4 (50 mM Tris, 1 mM MgSO4, 0.1 mM EDTA, 44 mN H2SO4, pH 7.4); c(s) in Sedfit; octamer to 8 monomers
[19] = biological target: enolase from Streptococcus pyogenes F137L/E363G (Streptococcus pyogenes) (UniProt P69949)
[20] = biological target: enolase from Streptococcus pyogenes F137L/E363G (Streptococcus pyogenes) (UniProt P69949); assay: AUC; sedimentation velocity, Beckman XL-I, 20°C, 30 000-37 000 RPM, TME-SO4 (50 mM Tris, 1 mM MgSO4, 0.1 mM EDTA, 44 mN H2SO4, pH 7.4); c(s) in Sedfit; octamer to 8 monomers

Substance: Str enolase 137/363–1 (ΔK435) (from UniProt P69949 1-434) (enzyme)
- Molecular Activity (2-phosphoglycerate to phosphoenolpyruvate, 20°C), taken as the amount of octamer [1]: 4040 min⁻¹
- stoichiometry N [2]: 8

Substance: Str enolase 137/363–2 (ΔK434-K435) (from UniProt P69949 1-433) (enzyme)
- Molecular Activity (2-phosphoglycerate to phosphoenolpyruvate, 20°C), taken as the amount of octamer [3]: 1730 min⁻¹
- stoichiometry N [4]: 8

Substance: Str enolase 137/363–3 (ΔL433-K435) (from UniProt P69949 1-432) (enzyme)
- Molecular Activity (2-phosphoglycerate to phosphoenolpyruvate, 20°C), taken as the amount of octamer [5]: 497 min⁻¹
- stoichiometry N [6]: 8

Substance: Str enolase 137/363–4 (ΔN432-K435) (from UniProt P69949 1-431) (enzyme)
- Molecular Activity (2-phosphoglycerate to phosphoenolpyruvate, 20°C), taken as the amount of octamer [7]: 27 min⁻¹
- stoichiometry N [8]: 8

Substance: Str enolase 137/363–5 (ΔY431-K435) (from UniProt P69949 1-430) (enzyme)
- Molecular Activity (2-phosphoglycerate to phosphoenolpyruvate, 20°C), taken as the amount of octamer [9]: 0.36 min⁻¹
- stoichiometry N [10]: 8

Substance: Str enolase 137/363–6 (ΔF430-K435) (from UniProt P69949 1-429) (enzyme)
- Molecular Activity (2-phosphoglycerate to phosphoenolpyruvate, 20°C), taken as the amount of octamer [11]: 0.22 min⁻¹
- total amount of octamer estimated from activity assays, as percent of the concentration of the Str enolase DB [12]: 0.0002%

Substance: Str enolase 137/363–8 (ΔK428-K435) (from UniProt P69949 1-427) (enzyme)
- Molecular Activity (2-phosphoglycerate to phosphoenolpyruvate, 20°C), taken as the amount of octamer [13]: 0.08 min⁻¹
- total amount of octamer estimated from activity assays, as percent of the concentration of the Str enolase DB [14]: 0.0002%

Substance: Str enolase DB E363G (from UniProt P69949 1-435) (enzyme)
- Molecular Activity (2-phosphoglycerate to phosphoenolpyruvate, 20°C), taken as the amount of octamer [15]: 8460 min⁻¹
- stoichiometry N [16]: 8

Substance: Str enolase DB F137L (from UniProt P69949 1-435) (enzyme)
- Molecular Activity (2-phosphoglycerate to phosphoenolpyruvate, 20°C), taken as the amount of octamer [17]: 7160 min⁻¹
- stoichiometry N [18]: 8

Substance: enolase from Streptococcus pyogenes F137L/E363G (from UniProt P69949 1-435) (enzyme)
- Molecular Activity (2-phosphoglycerate to phosphoenolpyruvate, 20°C), taken as the amount of octamer [19]: 5250 min⁻¹
- stoichiometry N [20]: 8
